Assay results reported in paper PMC6726503.

Molecular target: T1, human TGF-β2 (human)
T1 sequence (P61812 303-414, looked up): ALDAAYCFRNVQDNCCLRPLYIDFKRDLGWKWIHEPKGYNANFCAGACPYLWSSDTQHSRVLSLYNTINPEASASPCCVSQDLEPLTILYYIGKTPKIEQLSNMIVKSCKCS
Assay: SPR

B1: full-length rat betaglycan ectodomain (domain or fragment)
chain: GPEPSTRCELSPINASHPVQALMESFTVLSGCASRGTTGLPREVHVLNLRSTDQGPGQRQREVTLHLNPIASVHTHHKPIVFLLNSPQPLVWHLKTERLAAGVPRLFLVSEGSVVQFPSGNFSLTAETEERNFPQENEHLLRWAQKEYGAVTSFTELKIARNIYIKVGEDQVFPPTCNIGKNFLSLNYLAEYLQPKAAEGCVLPSQPHEKEVHIIELITPSSNPYSAFQVDIIVDIRPAQEDPEVVKNLVLILKCKKSVNWVIKSFDVKGNLKVIAPNSIGFGKESERSMTMTKLVRDDIPSTQENLMKWALDNGYRPVTSYTMAPVANRFHLRLENNEEMRDEEVHTIPPELRILLDPDHPPALDNPLFPGEGSPNGGLPFPFPDIPRRGWKEGEDRIPRPKQPIVPSVQLLPDHREPEEVQGGVDIALSVKCDHEKMVVAVDKDSFQTNGYSGMELTLLDPSCKAKMNGTHFVLESPLNGCGTRHRRSTPDGVVYYNSIVVQAPSPGDSSGWPDGYEDLESGDNGFPGDGDEGETAPLSRAGVVVFNCSLRQLRNPSGFQGQLDGNATFNMELYNTDLFLVPSPGVFSVAENEHVYVEVSVTKADQDLGFAIQTCFLSPYSNPDRMSDYTIIENICPKDDSVKFYSSKRVHFPIPHAEVDKKRFSFLFKSVFNTSLLFLHCELTLCSRKKGSLKLPRCVTPDDACTSLDATMIWTMMQNKKTFTKPLAVVLQVDYKENVPSTKDSSPIPPPPPQIFHGLDTLTV
In the case of B1, the Kd is reported as 0.511 nM, the koff is reported as 0.000755 s⁻¹ and the kon is reported as 1.48e+06 M⁻¹ s⁻¹.
